Test [1] deals with T1, human ENO1 protein (human, UniProt P06733 1-434, limits assumed).
T1 construct: The source and construct of the ENO1 protein used in ELISA and SPR are not described; also called alpha-enolase; enolase-1
Put plainly: SPR, BIAcore 2000, ENO1 injected, 25 degree C. From the text:
To know the biding kinetics difference among individual antibodies, surface plasmon resonance (SPR) measurement with a BIAcore 2000 (BIAcore, Inc., Piscataway, N.J.) was used as previously described (Karlsson & Falt, (1997) J. Immunol Methods 200:121-133). Carboxymethylated dextran biosensor chips (CMS, BIAcore Inc.) were activated with N-ethyl-N′-(3-dimethylaminopropyl)-carbodiimide hydrochloride (EDC) and N-hydroxysuccinimide (NHS) according to the supplier's instructions. Chimera EN10 mAb was diluted with 10 mM sodium acetate, pH 4.8, into 5 microgram/ml before injection at a flow rate of 20 micro Uminute to achieve approximately 100 response units (RU) of coupled protein followed by the injection of 1M ethanolamine to block unreacted groups. For kinetics measurements, two-fold serial dilutions of ENO1 (0.3125 nM to 40 nM) were injected in HBS-P Biacore running buffer provided by the manufacturer (BIAcore, Inc., Piscataway, N.J.) at 25 degree C. at a flow rate of 25 microL/min, and binding responses on the EN10 mAb were corrected by subtraction of responses on a blank flow cell. Association rates (kon or ka) and dissociation rates (koff or kd) were calculated using a simple one-to-one Langmuir binding model with separate fittings of kon and koff was used. (BIAcore™ Evaluation Software version 3.2).
Background: Surface plasmon resonance follows binding to a sensor surface in real time, without labels.

Test [2] has as its target T1, human ENO1 protein. As to the kind of experiment: ENO1 binding ELISA.

Usually Kd stands for the concentration at which binding is half-saturated. A lower Kd goes with a tighter complex. By koff is commonly meant the rate constant with which the complex falls apart. High values mean fast dissociation, low ones slow dissociation. As usually defined, the kon is the second-order rate constant of association. A low value points to slower complex formation.

T1 sequence (P06733 whole entry): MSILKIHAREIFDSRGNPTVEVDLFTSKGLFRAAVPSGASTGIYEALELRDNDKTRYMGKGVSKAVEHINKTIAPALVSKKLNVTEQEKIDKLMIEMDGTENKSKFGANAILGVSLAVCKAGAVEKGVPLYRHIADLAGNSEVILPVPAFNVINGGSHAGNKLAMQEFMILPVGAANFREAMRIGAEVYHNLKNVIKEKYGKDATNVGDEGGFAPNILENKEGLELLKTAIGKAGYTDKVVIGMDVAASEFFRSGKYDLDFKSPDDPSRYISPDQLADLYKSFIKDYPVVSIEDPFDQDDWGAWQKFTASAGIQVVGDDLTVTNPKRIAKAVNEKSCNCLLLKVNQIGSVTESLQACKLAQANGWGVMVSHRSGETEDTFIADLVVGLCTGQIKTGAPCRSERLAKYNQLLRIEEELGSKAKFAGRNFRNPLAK

B1: hum EN10 mAb 4D5 (antibody, V domains shown)
VH: EVQLVESGGGLVQPGGSLRLSCAASGYTFTSCVMNWVRQAPGKGLEWVAYINPYNDGTKYNEKFKGRFTISRDDSKNTLYLQMNSLRAEDTAVYYCAREGFYYGNFDNWGQGTLVTVSS
VL: DIQMTQSPSSLSASVGDRVTITCRASENIYSYLTWYQQKPGKAPKLLIYNAKTLPEGVPSRFSGSGSGTDFTLTISSLQPEDFATYYCQHHYGTPYTFGQGTKLEIKR
notes: Humanized variable regions on human IgG; also called humanized EN10 mAb 4D5; 4D5 humanized edition
In the test with human ENO1 protein [1], B1 gave a Kd of 0.5 nM, a koff of 0.000176 s⁻¹ and a kon of 351000 M⁻¹ s⁻¹.

B2: hum EN10 mAb IMGT (antibody, V domains shown)
VH: QVQLVQSGAEVKKPGASVKVSCKASGYTFTSCVMNWVRQAPGQGLEWMGYINPYNDGTKYNEKFKGRVTMTTDTSTSTAYMELRSLRSDDTAVYYCAREGFYYGNFDNWGQGTLVTVSS
VL: B1 VL
notes: Humanized variable regions on human IgG; also called Hum EN10 IMGT; humanized EN10 mAb IMGT
In the test with human ENO1 protein [1], B2 came in with a Kd of 0.219 nM, a koff of 0.000116 s⁻¹ and a kon of 531000 M⁻¹ s⁻¹. In the test with human ENO1 protein [2], this molecule gave a Kd of 0.0365 nM.

For the origin of these results see patent US20160185876A1 (DEVELOPMENT CENTER FOR BIOTECHNOLOGY, published 2016).
